Paper PMC5584224, “Peptide-based PET imaging of the tumor restricted IL13RA2 biomarker” (Oncotarget, 2017)
Where “and” joins values, the source holds several entries; their conditions need not be identical. Equal entries are not always repeated. Non-standard residues stand in square brackets, D forms with d. Residues, ends and D or L forms follow the SMILES beside them. *: point of attachment. Biotin = O=C1N[C@H]2[C@H](CS[C@H]2CCCCC(=O)*)N1; Ahx = NCCCCCC(=O)O

Key:
[1] = system: IL13RA2-expressing G48 cells; assay: In vitro cell uptake assay with and without unlabeled Pep-1L blockade; format: cell-based, human
Procedure: Previously, we reported that this cell line contains about 4,000,000 IL13RA2 binding sites.
Figure 3 Cell uptake of [^64Cu]Pep-1L Uptake of [^64Cu]Pep-1L in IL13RA2-expressing G48 cells after 1, 3, and 4 h of exposure. […] The data were expressed as % injected dose (ID)/mg of protein present in each well with p values ≤ .005 considered statistically significant (n=6).
The in vitro reactivity, binding affinity and specificity for [^64Cu]Pep-1L were determined using human GBM cell line G48, following previously reported methods. 1 × 10^5 cells were then seeded into each well of a 6-well culture. G48 cells were incubated overnight at 37°C with 5% CO2 in an incubator. […] The radioactivity was counted using the Wallac 1480 Wizard gamma counter (Perkin Elmer, Turku, Finland). […]
The uptake data in each sample from each well and the standard counts for each condition were expressed as counts per minute (cpm) of activity and were decay corrected for elapsed time. The cpm values of each well were normalized to the amount of radioactivity added to each well and the protein concentration in the well and expressed as percent uptake relative to the control condition. The data were expressed as %ID/mg of protein present in each well with p values ≤ 0.005 considered statistically significant.

[2] = Biodistribution in mice bearing IL13RA2-expressing G48 xenografts; format: in vivo; settings: athymic nude, mouse, in vivo, iv, total radioactivity
Procedure: (§1) Biodistribution studies with [^64Cu]Pep-1L were performed in mice bearing IL13RA2-expressing G48 tumors (n=4) to confirm in vivo binding. […] The uptake ratios for target to non-target (tumor: muscle) increased from 3.7 to 6.0 from 4 h to 24 h (Figure 4B).
(§2) Figure 4 In vivo properties of [^64Cu]Pep-1L (A) biodistribution and (B) tumor-to-muscle (target: nontarget) ratio of [^64Cu]Pep-1L in mice bearing IL13RA2-expressing tumor xenografts 4h and 24h post injection (n=4) with p values ≤ .05 considered statistically significant.
(§3) Athymic nude mice (Taconic Farms) were housed in a pathogen-free facility of the Animal Research Program at Wake Forest School of Medicine under a 12:12-h light/dark cycle and fed ad libitum. All animal experiments were conducted under IACUC approved protocols in compliance with the guidelines for the care and use of research animals established by Wake Forest Medical School Animal Studies Committee. IL13RA2-expressing G48 tumors cells (1 × 10^5 cells suspended in 10 μL) were implanted in the left flank of nude mice (25-30 g) as described previously. The presence of viable tumors was confirmed through bioluminescence imaging. Standard biodistribution studies were performed in the same nude mice with flank tumors (n=4) at 10-15 days after tumor implantation. Mice were anesthetized with 1% isoflurane-oxygen and approximately 3.7- 4.6 MBq of [^64Cu]Pep-1L was administered via tail vein injection. […] Peptide concentration of 15 mg/kg was used as the blocking agent and was intravenously injected via tail vein 15 min prior to the radiotracer. The tumor and organs of interest were dissected and gamma counted using Wallac 1480 Wizard gamma counter (Perkin Elmer, Turku, Finland). The concentration of the radioactivity in the tumor and organs were expressed in percentage injected dose per gram (%ID/g) of radioactivity with p values ≤ .05 considered statistically significant and uptake ratio of tumor-to-muscle was calculated.

[3] = system: IL13RA2-expressing G48 tumors; assay: as above; format: in vivo; settings: G48 tumor bearing mice, 24 h post injection, non-blockade vs blockade group
Procedure: as §1, §2, §3

[4] = system: B16F10-Tet-hIL13RA2 tumors; assay: microPET/CT imaging, ROI analysis, in doxycycline-inducible B16F10-Tet-hIL13RA2 tumor model; format: in vivo, mice
Procedure: (§4) 7 days after tumor cell implantations, mice were divided into induced and uninduced (control) groups (n=4/group). To induce hIL13RA2 expression, doxycycline was administered intraperitoneally (2.5 mg/mouse) every 12 hours for 2 days. After IL13RA2-induction, [^64Cu]Pep-1L was intravenously injected to mice bearing induced or control (uninduced) subcutaneous tumors and microPET/CT imaging was performed 4 h post intravenous injection. […] Other notable findings were that there was radiotracer accumulation in liver and kidney in both induced and control animals, which are primary organs for peptide clearance. […]
(§5) B16F10 murine melanoma cell line was cultured in DMEM base media. […] Cell number was calculated using a hemocytometer and required number of B16F10 cells was suspended in DMEM media. […]
(§6) Mice bearing subcutaneous tumors were grouped into two groups (n=4) and placed in an induction chamber containing ~2% isoflurane/oxygen then secured to a custom double bed for placement of tail vein catheters. […] Samples of tumor, blood, lung, liver, spleen, kidney, muscle and heart were harvested, weighed and then counted on the gamma counter with a standard dilution of the injectate. The percentage of the injected dose per gram of tissue (%ID/g) was calculated as described above with p values ≤ .05 considered statistically significant (n=4).

[5] = in vivo; design: species or system mice; settings: athymic nude, mouse, iv, total radioactivity, tumor uptake
Procedure: as §4, §5, §6

[6] = in vitro; settings: human, human serum
Procedure: The in vitro serum stability of the radiotracer [^64Cu]Pep-1L in human serum was performed at different time points and was analyzed through radioTLC spotting (Figure 2).
Figure 2 In vitro serum stability of [^64Cu]Pep-1L Reverse-phase C18 radio-TLC analysis of [^64Cu]Pep-1L over a 24 hour period post production.
The in vitro serum stability of [^64Cu]Pep-1L was performed using human serum (Sigma Aldrich) following previously published methods [38, 48]. Approximately 0.037 MBq/10 μL of [^64Cu]Pep-1L was added to the serum vial, to a final volume of 100 μL and incubated at 37°C [35]. 1 μL of the sample mixture was removed and spotted on a reverse C18-TLC plate at 1 h, 2 h, 4 h, 18 h and 24 h after the radiotracer synthesis and the percentage of bound Cu-64 was determined through radioTLC analysis as mentioned above [48].

[7] = cited from earlier work
Text: Pep-1L was conjugated with NOTA, a chelator that can form a six-coordinate complex with Cu-64 that results in a high stability constant (log K=21.6) by CPC scientific Inc.. […] The Cu-64 radiolabeling conditions for Pep-1L were well optimized in this work for high radiochemical purity of >98%, without any need for additional purification methodologies with a specific activity of 32-35 MBq/μg (Figure 1).

## CSCC[C@H](NC(=O)[C@H](CCC(=O)O)NC(=O)CNC(=O)[C@H](CS)NC(=O)[C@H](C)N)C(=O)NCC(=O)N[C@@H](Cc1c[nH]c2ccccc12)C(=O)N[C@H](C(=O)N[C@@H](CCCNC(=N)N)C(=O)N[C@@H](CS)C(=O)NCC(=O)NCC(=O)NCC(=O)N[C@@H](CO)C(=O)NCCCCCC(=O)N[C@@H](CCCCN)C(=O)N[C@@H](CCCCNC(=O)CCCC[C@@H]1SC[C@@H]2NC(=O)N[C@@H]21)C(N)=O)C(C)C [[^64Cu]Pep-1L, metal not drawn] (H-ACGEMGWVRCGGGS[Ahx]KK(Biotin)-NH2)
[1]; 0.0185 MBq/well, 37°C, 1, 3, 4 h, blocker 5 μM (50x excess) unlabeled peptide 15 min before tracer, gamma counting, %ID/mg protein
  cell uptake in G48 cells under binding site blockade with unlabeled Pep-1L: significantly inhibited
[1]; 37°C, 1 to 4 h exposure
  course of cell uptake over time: continued increase
[2]
  tissue to tissue ratio at 4 h: 3.7
  tissue to tissue ratio at 24 h: 6
[2]; blood uptake, 24 h non-blockade
  tissue uptake at 24 h: 0.62 ± 0.579 %ID/g
[2]; brain uptake, 4 h
  tissue uptake at 4 h: ~0.013 %ID/g
[2]; brain uptake, 24 h
  tissue uptake at 24 h: ~0.009 %ID/g
[2]; heart uptake, 24 h non-blockade
  tissue uptake at 24 h: 1.21 ± 1.01 %ID/g
[2]; kidney uptake, 24 h non-blockade
  tissue uptake at 24 h: 17.4 ± 1.41 %ID/g
[2]; liver uptake, 24 h non-blockade
  tissue uptake at 24 h: 9.86 ± 1.59 %ID/g
[2]; lung uptake, 24 h non-blockade
  tissue uptake at 24 h: 3.58 ± 1.08 %ID/g
[2]; muscle uptake, 24 h non-blockade
  tissue uptake at 24 h: 0.41 ± 0.038 %ID/g
[2]; tumor uptake, 24 h non-blockade
  tissue uptake at 24 h: 2.43 ± 0.626 %ID/g
[2]; nude mice with G48 flank tumors, 3.7-4.6 MBq i.v. tail vein, 4 h post injection, gamma counting, mean ± SD, n=4, read-out: tumor uptake, 4 h
  tissue uptake at 4 h: 1.38 ± 0.09 %ID/g
[3]
  blockade of tumor uptake by pre-injected unlabeled peptide: 5 fold and 3 fold
[4]; athymic nude mice, 4.62-5.5 MBq i.v., 20 min scan 4 h post injection, doxycycline 2.5 mg/mouse i.p. every 12 h for 2 days, n=4/group
  tumor accumulation, doxycycline-induced vs non-induced (ROI analysis of microPET/CT): ~ 3 fold
[4]; summary of PET/CT and post-necropsy biodistribution, doxycycline pretreatment
  binding of induced vs uninduced tumors (PET/CT and post-necropsy biodistribution, abstract): 3-4 fold
[5]; doxycycline-induced tumors
  tissue uptake at 4 h: 14.1 ± 0.246 %ID/g
[5]; non-induced tumors
  tissue uptake at 4 h: 4.179 ± 0.007 %ID/g
[6]
  remaining at 24 h, 0.37 MBq/mL: ~90%

## O=C(O)CN1CCN(CC(=O)O)CCN(CC(=O)O)CC1 [NOTA, 1,4,7-triazacyclononane-1,4,7-triacetic acid]
[7]
  stability constant (log K) of six-coordinate complex with Cu-64: 21.6
